We go through 5 molecules from paper PMC4105704 (Cell, 2014).

One may read the stoichiometry N as the number of molecules, sites or subunits per partner or assembly.

Data set [1] addresses full-length Hermes expressed in Sf9 cells (Musca domestica). The data set can be described thus: SEC. Background: In gel filtration, larger molecules generally elute earlier.
The target of data set [2] is full-length Hermes expressed in budding yeast (Musca domestica). The data set can be described thus: SEC.
Data set [3] deals with HermesΔ497-516 (Musca domestica).
Data set [4] deals with Hermes79-612 C519S (Musca domestica). The data set can be described thus: crystal structure.
Data set [5] deals with the molecule itself. The data set can be described thus: SEC.

Consider “full-length Hermes expressed in Sf9 cells (enzyme)”, for which the stoichiometry N in data set [1] is 8.
The molecule “full-length Hermes expressed in budding yeast (enzyme)” returned a stoichiometry N in data set [2] of 8.
In data set [3], HermesΔ497-516 (enzyme) came in with a stoichiometry N of 2.
With Hermes79-612 C519S (domain or fragment), the stoichiometry N in data set [4] was 8.

B1: full-length Hermes transposase (E. coli-expressed) (enzyme, Musca domestica, UniProt Q25438 1-612, looked up)
chain: MQKMDNLEVKAKINQGLYKITPRHKGTSFIWNVLADIQKEDDTLVEGWVFCRKCEKVLKYTTRQTSNLCRHKCCASLKQSRELKTVSADCKKEAIEKCAQWVVRDCRPFSAVSGSGFIDMIKFFIKVKAEYGEHVNVEELLPSPITLSRKVTSDAKEKKALISREIKSAVEKDGASATIDLWTDNYIKRNFLGVTLHYHENNELRDLILGLKSLDFERSTAENIYKKLKAIFSQFNVEDLSSIKFVTDRGANVVKSLANNIRINCSSHLLSNVLENSFEETPELNMPILACKNIVKYFKKANLQHRLRSSLKSECPTRWNSTYTMLRSILDNWESVIQILSEAGETQRIVHINKSIIQTMVNILDGFERIFKELQTCSSPSLCFVVPSILKVKEICSPDVGDVADIAKLKVNIIKNVRIIWEENLSIWHYTAFFFYPPALHMQQEKVAQIKEFCLSKMEDLELINRMSSFNELSATQLNQSDSNSHNSIDLTSHSKDISTTSFFFPQLTQNNSREPPVCPSDEFEFYRKEIVILSEDFKVMEWWNLNSKKYPKLSKLALSLLSIPASSAASERTFSLAGNIITEKRNRIGQQTVDSLLFLNSFYKNFCKLDI
On to B1, for which, in data set [5], the “stoichiometry N” value is 8.
